This note sets out measurements from paper PMC12209172, “Poly(ADP-ribose)polymerase 2 is zinc-dependent enzyme and nucleosome reorganizer” (Cellular and Molecular Life Sciences: CMLS, 2025).

The target in one assay is T1, NP nucleosomes (Homo sapiens, UniProt Q9UGN5).
T1 construct: WGR domain of PARP2 (residues 77–220) into pET-15b-TEV expression vector; 6xHis (pET-15b-TEV) (N, cleaved yes); made in house; host or cells: Escherichia coli Rosetta2 (DE3) pLysS (WGR)
Briefly: EMSA of WGR domain-nucleosome complexes (0.7% agarose gel). Particulars: no divalent cations or 2 mM Zn2+. The assay is classed as binding, chicken. As for the experimental part:
Sample preparation for EMSA was the same as for spFRET microscopy, although a slightly higher concentration of nucleosomes (2–3 nM) was used. […] Electrophoresis was performed under native conditions at 140 V, + 4 °C for ∼1.5 h. The gels were scanned using Amersham Typhoon RGB imager (Cytiva, Sweden). Fluorescence was excited in the gel at the 532 nm wavelength and recorded in the 570–610 nm (Cy3 signal) and 650–700 nm (FRET signal of Cy5) spectral regions. The resulting images were obtained in green (Cy3 signal) and red (FRET signal of Cy5) colors and merged.
Fig. 3 WGR domain of PARP2 binds zinc ions and reorganizes nucleosome structure. (a) A model of Zn^2+ binding to the WGR domain created on the basis of the PDB structure 6F5B. Two putative binding sites are shown. N- and C-terminal ends of the WGR domain are indicated. The numbering of the residues corresponds to the numbering of the complete PARP2 sequence. (b) CD spectra of the WGR domain (60 µM) in a buffer containing no divalent cations (Me^2+) or 0.5 mM Zn^2+ ions. (c) Content of canonical types of secondary structures in the WGR domain of PARP2 according to the analysis of CD spectra of the WGR domain measured in the absence or presence of 0.5 mM Zn^2+ ions. (d) Changes in the fluorescence spectra of tryptophan residues 148, 151 and 188 of the WGR domain (5 µM) at different concentrations of Zn^2+ ions. […]
On the technique in general: In EMSA bound probe runs differently from free probe, usually more slowly.

The target in a further assay is T2, Nd nucleosomes (Homo sapiens, UniProt Q9UGN5).
T2 construct: WGR domain of PARP2 (residues 77–220) into pET-15b-TEV expression vector; made in house; host or cells: Escherichia coli Rosetta2 (DE3) pLysS
Kind of assay: Fluorescence microscopy of Nd nucleosomes binding to His-tagged WGR immobilized on Ni-NTA beads. The arrangement: species or system chicken. Particulars: beads with immobilized His-tagged WGR vs without. As for the experimental part:
The binding of nucleosomes to the WGR domain was confirmed after immobilization of the protein containing His-tag on the surface of Ni-NTA beads using fluorescence microscopy (Figure S6).
Figure S6. Confocal fluorescence (a, c, e) and transmitted-light (b, d, f) imaging of Ni-NTA beads with (a, b, e, f) or without
(c, d) immobilized 6 ×His-WGR. The beads were additionally incubated with Nd nucleosomes (a, b, c, d). The parameters of
measurements and intensity scales in fluorescent images(a, c, e)are the same. […]

B1: WGR domain: recombinant WGR domain of PARP2 (residues 77–220) expressed in Escherichia coli (protein, UniProt O88554 77-220, looked up, fragment)
chain: ECAAKLGKAHVYCEGDDVYDVMLNQTNLQFNNNKYYLIQLLEDDAQRNFSVWMRWGRVGKTGQHSLVTCSGDLNKAKEIFQKKFLDKTKNNWEDRENFEKVPGKYDMLQMDYAASTQDESKTKEEETLKPESQLDLRVQELLKL
modifications: WGR domain
notes: recombinant WGR domain of PARP2 (residues 77–220) expressed in Escherichia coli
For B1, the “binding of the WGR domain to nucleosomes” value with NP nucleosomes was “binds to nucleosomes in the presence and absence of Zn^2+ ions”. Also, the “binding of Nd nucleosomes to Ni-NTA beads” value in the assay with Nd nucleosomes is recorded as “strongly increased”.
